How the values were obtained:
[1] = target: bovine serum albumin, P02769
[2] = target: C. muridarum Major Outer Membrane Protein (MOMP)

bovine serum albumin, P02769, sequence (P02769 25-607): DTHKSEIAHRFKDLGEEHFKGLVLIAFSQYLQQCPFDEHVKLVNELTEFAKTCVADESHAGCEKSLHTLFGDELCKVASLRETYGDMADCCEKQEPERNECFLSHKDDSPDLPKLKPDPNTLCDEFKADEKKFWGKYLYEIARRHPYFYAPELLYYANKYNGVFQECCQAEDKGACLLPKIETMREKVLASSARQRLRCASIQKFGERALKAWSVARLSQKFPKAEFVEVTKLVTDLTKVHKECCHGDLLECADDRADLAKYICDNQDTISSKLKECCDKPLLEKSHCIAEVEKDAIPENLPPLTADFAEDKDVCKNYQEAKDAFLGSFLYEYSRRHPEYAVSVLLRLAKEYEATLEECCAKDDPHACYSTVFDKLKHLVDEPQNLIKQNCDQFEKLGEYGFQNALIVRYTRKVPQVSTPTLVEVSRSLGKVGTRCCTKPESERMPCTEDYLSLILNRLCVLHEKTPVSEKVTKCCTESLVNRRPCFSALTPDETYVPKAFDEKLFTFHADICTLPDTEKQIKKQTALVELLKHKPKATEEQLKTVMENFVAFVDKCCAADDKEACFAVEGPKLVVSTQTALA

Row | Protein | protease digestion of BSA, overnight at 37 C, SDS-PAGE/Coomassie, with DTT [1] | protease digestion of MOMP, SDS-PAGE/Coomassie, with DTT [2] | protease digestion of MOMP, SDS-PAGE/Coomassie, without DTT [2] | protease digestion of BSA, SDS-PAGE/Coomassie, with DTT [1] | protease digestion of MOMP, SDS-PAGE/Coomassie, with and without DTT [2]
1 | wild-type C. trachomatis HtrA (CT823) (protein) SPMLGYSASKKDSKADICLAVSSGDQEVSQEDLLKEVSRGFSRVAAKATPGVVYIENFPKTGNQAIASPGNKRGFQENPFDYFNDEFFNRFFGLPSHREQQRPQQRDAVRGTGFIVSEDGYVVTNHHVVEDAGKIHVTLHDGQKYTAKIVGLDPKTDLAVIKIQAEKLPFLTFGNSDQLQIGDWAIAIGNPFGLQATVTVGVISAKGRNQLHIVDFEDFIQTDAAINPGNSGGPLLNINGQVIGVNTAIVSGSGGYIGIGFAIPSLMAKRVIDQLISDGQVTRGFLGVTLQPIDSELATCYKLEKVYGALVTDVVKGSPAEKAGLRQEDVIVAYNGKEVESLSALRNAISLMMPGTRVVLKIVREGKTIEIPVTVTQIPTEDGVSALQKMGVRVQNITPEICKKLGLAADTRGILVVAVEAGSPAASAGVAPGQLILAVNRQRVASVEELNQVLKNSKGENVLLMVSQGDVVRFIVLKSDE | strong protease activity in the presence of the reducing agent DTT (dithiothreitol) as shown by degradation of the intact BSA protein |  |  |  | 
2 | wild type C. muridarum HtrA (TC0210) (protein) SPMLGYSAPKKDSSTGICLAASQSDRELSQEDLLKEVSRGFSKVAAQATPGVVYIENFPKTGSQAIASPGNKRGFQENPFDYFNDEFFNRFFGLPSHREQPRPQQRDAVRGTGFIVSEDGYVVTNHHVVEDAGKIHVTLHDGQKYTAKIIGLDPKTDLAVIKIQAKNLPFLTFGNSDQLQIGDWSIAIGNPFGLQATVTVGVISAKGRNQLHIVDFEDFIQTDAAINPGNSGGPLLNIDGQVIGVNTAIVSGSGGYIGIGFAIPSLMAKRVIDQLISDGQVTRGFLGVTLQPIDSELAACYKLEKVYGALITDVVKGSPAEKAGLRQEDVIVAYNGKEVESLSALRNAISLMMPGTRVVLKVVREGKFIEIPVTVTQIPAEDGVSALQKMGVRVQNLTPEICKKLGLASDTRGIFVVSVEAGSPAASAGVVPGQLILAVNRQRVSSVEELNQVLKNAKGENVLLMVSQGEVIRFVVLKSDE |  | completely degrades MOMP protein in the presence of DTT (lane 7) | strongly degrades MOMP protein in the absence of DTT (lane 5) | possesses a strong protease activity as it degrades the BSA substrate (lane 5) | 
3 | TC0210-(H143R) (protein) SPMLGYSAPKKDSSTGICLAASQSDRELSQEDLLKEVSRGFSKVAAQATPGVVYIENFPKTGSQAIASPGNKRGFQENPFDYFNDEFFNRFFGLPSHREQPRPQQRDAVRGTGFIVSEDGYVVTNHRVVEDAGKIHVTLHDGQKYTAKIIGLDPKTDLAVIKIQAKNLPFLTFGNSDQLQIGDWSIAIGNPFGLQATVTVGVISAKGRNQLHIVDFEDFIQTDAAINPGNSGGPLLNIDGQVIGVNTAIVSGSGGYIGIGFAIPSLMAKRVIDQLISDGQVTRGFLGVTLQPIDSELAACYKLEKVYGALITDVVKGSPAEKAGLRQEDVIVAYNGKEVESLSALRNAISLMMPGTRVVLKVVREGKFIEIPVTVTQIPAEDGVSALQKMGVRVQNLTPEICKKLGLASDTRGIFVVSVEAGSPAASAGVVPGQLILAVNRQRVSSVEELNQVLKNAKGENVLLMVSQGEVIRFVVLKSDE |  |  |  | does not degrade the BSA substrate (lane 3) | does not degrade the MOMP protein, either in the presence of DTT (lane 8) or in the absence of DTT (lane 6)

Reference: patent US20110110857
